Assay [1] addresses cross-linked NBD1-M dimer with Walker B mutation E271Q in the cross-linked interface (Thermus thermophilus) (UniProt Q9RA63). The assay can be described thus: SEC-MALS; Superdex 200 10/300 GL with multiangle static light scattering (SLS), buffer A (50 mM Tris/HCl pH 7.5, 50 mM KCl, 5 mM MgCl2, 2 mM EDTA); running buffer nucleotide-free or with 2 mM ADP or 2 mM ATP; 40 μl of 100 μM injected, about 2 μM at the detector; self-association induced by nucleotide. As to conditions: scale: NBD1-M subunits. A general note: SEC sorts molecules by how far they enter the pores of the column.

Assay [2] deals with cross-linked NBD1-M dimer with Walker B mutation E271Q in the free interface (Thermus thermophilus) (UniProt Q9RA63). Described as above. As to conditions: scale: NBD1-M subunits.

This is an account of results in publication PMC4239642, “trans-Acting Arginine Residues in the AAA+ Chaperone ClpB Allosterically Regulate the Activity through Inter- and Intradomain Communication” (The Journal of Biological Chemistry, 2014).

Broadly, the stoichiometry N is the number of molecules, sites or subunits per partner or assembly.

The substance “cross-linked NBD1-M dimer with Walker B mutation E271Q in the cross-linked interface (from UniProt Q9RA63 141-534; Q9RA63 141-534) (complex)” displayed a stoichiometry N in assay [1] of 4. In turn, “cross-linked NBD1-M dimer with Walker B mutation E271Q in the free interface (from UniProt Q9RA63 141-534; Q9RA63 141-534) (complex)” came in with a stoichiometry N in assay [2] of 4.
